Here are results for 26 substances from publication PMC10387068.

Assay [1] has as its target DEP-Venus (isolated DEP domain of human DVL2 tagged with mVenus) (UniProt O14641). The experiment in a line: direct BRET titration. The conditions noted are these: HEK293A cells, constant receptor-Nluc plasmid, increasing DEP-Venus plasmid, read off a plot; for other: BRETmax: parent: est. 0.23; for other: log BRET50: parent: est. 2.6. On the technique in general: BRET reads energy transfer from a luciferase to a nearby fluorophore.

The target in assay [2] is heterotrimeric Gq 4A (Gαq 4A with Venus(1-155)-β1 and Venus(156-239)-γ2), P50148;P62873;P59768. The experiment in a line: BRET assay (receptor-Nluc and Venus-tagged βγ subunits). The settings on record: values normalized to cells transfected with the same FZD5-Nluc construct but no Gq 4A; parent: est. 111; read off a plot.

Regarding “FZD5-Nluc (wild-type human Frizzled-5, C-terminally tagged with Nanoluciferase) (from UniProt Q13467) W6×61A”, in assay [1], the other: BRETmax turned out to be 0.14 and the other: log BRET50 was 2.7. The response in assay [2] was 102 % BRET.
On the same counts, the results for “FZD5-Nluc (wild-type human Frizzled-5, C-terminally tagged with Nanoluciferase) (from UniProt Q13467) Y6×51A” are 0.2, 2.5 and 106 % BRET.
For “FZD5-Nluc (wild-type human Frizzled-5, C-terminally tagged with Nanoluciferase) (from UniProt Q13467) F3×29A” the same measures were 0.19, 2.5 and 108 % BRET.
As to “FZD5-Nluc (wild-type human Frizzled-5, C-terminally tagged with Nanoluciferase) (from UniProt Q13467) L6×52A”, in assay [1], the other: BRETmax was 0.22 and the other: log BRET50 was determined as 2.7. The response in assay [2] was determined as 109 % BRET.
On the same counts, the results for “FZD5-Nluc (wild-type human Frizzled-5, C-terminally tagged with Nanoluciferase) (from UniProt Q13467) G5×58A” are 0.21, 2.5 and 106 % BRET.
For “FZD5-Nluc (wild-type human Frizzled-5, C-terminally tagged with Nanoluciferase) (from UniProt Q13467) L3×52A” the same measures were 0.18, 2.8 and 103 % BRET.
On the same counts, the results for “FZD5-Nluc (wild-type human Frizzled-5, C-terminally tagged with Nanoluciferase) (from UniProt Q13467) R6×32A” are 0.15, 4.1 and 106 % BRET.
“FZD5-Nluc (wild-type human Frizzled-5, C-terminally tagged with Nanoluciferase) (from UniProt Q13467) V45×52A”: in assay [1], the other: BRETmax was 0.19 and the other: log BRET50 came to 2.5. Moreover, in assay [2], the response came to 105 % BRET.
As to “FZD5-Nluc (wild-type human Frizzled-5, C-terminally tagged with Nanoluciferase) (from UniProt Q13467) G5×65A”, in assay [1], the other: BRETmax was found to be 0.25 and the other: log BRET50 is 2.4. For the same substance, the response in assay [2] was 115 % BRET.
In the case of “FZD5-Nluc (wild-type human Frizzled-5, C-terminally tagged with Nanoluciferase) (from UniProt Q13467) T1×50A”, in assay [1], the other: BRETmax came out at 0.22 and the other: log BRET50 turned out to be 3.2. Moreover, in assay [2], the response was determined as 111 % BRET.
On the same counts, the results for “FZD5-Nluc (wild-type human Frizzled-5, C-terminally tagged with Nanoluciferase) (from UniProt Q13467) M7×44A” are 0.22, 2.2 and 107 % BRET.
Consider “FZD5-Nluc (wild-type human Frizzled-5, C-terminally tagged with Nanoluciferase) (from UniProt Q13467) Y2×51A”, for which, in assay [1], the other: BRETmax was 0.15 and the other: log BRET50 was 2.7. The response in assay [2] turned out to be 101 % BRET.
For “FZD5-Nluc (wild-type human Frizzled-5, C-terminally tagged with Nanoluciferase) (from UniProt Q13467) L5×48A” the same measures were 0.16, 2.7 and 102 % BRET.
On to “FZD5-Nluc (wild-type human Frizzled-5, C-terminally tagged with Nanoluciferase) (from UniProt Q13467) F4×45A”, for which, in assay [1], the other: BRETmax was 0.14 and the other: log BRET50 is 3.1. In addition, in assay [2], the response is 102 % BRET.
On the same counts, the results for “FZD5-Nluc (wild-type human Frizzled-5, C-terminally tagged with Nanoluciferase) (from UniProt Q13467) C2×50A” are 0.12, 2.8 and 101 % BRET.
On the same counts, the results for “FZD5-Nluc (wild-type human Frizzled-5, C-terminally tagged with Nanoluciferase) (from UniProt Q13467) M3×37A” are 0.16, 3 and 103 % BRET.
For “FZD5-Nluc (wild-type human Frizzled-5, C-terminally tagged with Nanoluciferase) (from UniProt Q13467) M6×30A”, in assay [1], the other: BRETmax was determined as 0.21 and the other: log BRET50 stood at 3.2. Also, the response in assay [2] is 111 % BRET.
On the same counts, the results for “FZD5-Nluc (wild-type human Frizzled-5, C-terminally tagged with Nanoluciferase) (from UniProt Q13467) W3×43A” are 0.22, 2.6 and 108 % BRET.
For “FZD5-Nluc (wild-type human Frizzled-5, C-terminally tagged with Nanoluciferase) (from UniProt Q13467) Y6×53A” the same measures were 0.13, 3.1 and 100 % BRET.
For “FZD5-Nluc (wild-type human Frizzled-5, C-terminally tagged with Nanoluciferase) (from UniProt Q13467) W7×55A” the same measures were 0.19, 3.4 and 111 % BRET.
As to “FZD5-Nluc (wild-type human Frizzled-5, C-terminally tagged with Nanoluciferase) (from UniProt Q13467) G6×34A”, in assay [1], the other: BRETmax amounted to 0.23 and the other: log BRET50 was 2.4. Moreover, the response in assay [2] was determined as 108 % BRET.
In the case of “FZD5-Nluc (wild-type human Frizzled-5, C-terminally tagged with Nanoluciferase) (from UniProt Q13467) L5×62A”, in assay [1], the other: BRETmax worked out at 0.24 and the other: log BRET50 was 2.4. For the same substance, the response in assay [2] stood at 113 % BRET.
For “FZD5-Nluc (wild-type human Frizzled-5, C-terminally tagged with Nanoluciferase) (from UniProt Q13467) T1×53A” the same measures were 0.19, 3.1 and 106 % BRET.
Take “FZD5-Nluc (wild-type human Frizzled-5, C-terminally tagged with Nanoluciferase) (from UniProt Q13467) W8×54A”: in assay [1], the other: BRETmax came to 0.19 and the other: log BRET50 came out at 2.9. Besides, in assay [2], the response was 105 % BRET.
Turning to “FZD5-Nluc (wild-type human Frizzled-5, C-terminally tagged with Nanoluciferase) (from UniProt Q13467) V3×44A”, in assay [1], the other: BRETmax came out at 0.2 and the other: log BRET50 was determined as 2.5. The response in assay [2] came out at 107 % BRET.
For the substance “FZD5-Nluc (wild-type human Frizzled-5, C-terminally tagged with Nanoluciferase) (from UniProt Q13467) Y2×39A”, in assay [1], the other: BRETmax was 0.17 and the other: log BRET50 turned out to be 3.4. The response in assay [2] was determined as 108 % BRET.
